Drawing on patent US20240082389A1, this text covers fold more IL-12 loaded per EV than on control EVs with IL-12 genetically fused to PTGFRN for one substance.

The target of this experiment is ALFA nanobody (ALFANb) fused to the N-terminus of PTGFRN, displayed on the exterior surface of exosomes (UniProt Q9P2B2). Description: IL-12 ELISA of loaded EVs. (In general: ELISA stands for enzyme-linked immunosorbent assay.)

The substance “mouse IL-12 fused to ALFAtag peptide (ligand)” registered a fold more IL-12 loaded per EV than on control EVs with IL-12 genetically fused to PTGFRN of 290 fold.
